Self-cleavage data for 32 variants are collected here from the RNAGym collection of RNA variant scans (doi:10.7554/elife.80360).

To fix the notation:
B1: HDV Ribozyme (parent)
chain: GGCCGGCAUGGUCCCAGCCUCCUCGCUGGCGCCGGCUGGGCAACAUUCCGAGGGGACCGUCCCCUCGGUAAUGGCGAAUGGGACCCA

Variants of B1 are the subject of this data set. As to the kind of experiment: self-cleavage, relative activity (ratio to wild type); higher = more cleavage; co-transcriptional.
As to GGCCGGCAUGGUCCCAGCCUCCUCGCUGGCGCCGGCUGGGCAACAUUCCGAGGGGACCGUCCCCUCGGUAAUGGCGAAUCGGACCCG [G80C A87G], the self-cleavage is 0.211.

Take GGCCGGCAUGGUCCCAGCCUCCUCGCUGGCGCCGGCUGGGCAACAUUCCGAGGGGACCGUCCCCUCGGUAAUGGCGAACGGGACUCA [U79C C85U]: the self-cleavage was determined as 0.499.

With GGCCGGCAUGGUCCCAGCCUCCUCGCUGGCGCCGGCUGGGCAACAUUCCGAGGGGACCGUCCCCUCGGUAAUGGCGAAGGAGACCCA [U79G G81A], the self-cleavage stood at 0.146.

On to GGCCGGCAUGGUCCCAGCCUCCUCGCUGGCGCCGGCUGGGCAACAUUCCGAGGGGACCGUCCCCUCGGUAAUGGCGAAGGUGACCCA [U79G G81U], for which the self-cleavage worked out at 0.225.

Turning to GGCCGGCAUGGUCCCAGCCUCCUCGCUGGCGCCGGCUGGGCAACAUUCCGAGGGGACCGUCCCCUCGGUAAUGGCGAAUAGGUCCCA [G80A A83U], the self-cleavage amounted to 0.229.

Turning to GGCCGGCAUGGUCCCAGCCUCCUCGCUGGCGCCGGCUGGGCAACAUUCCGAGGGGACCGUCCCCUCGGUAAUGGCGAAUAGGGCCCA [G80A A83G], the self-cleavage worked out at 0.396.

As for GGCCGGCAUGGUCCCAGCCUCCUCGCUGGCGCCGGCUGGGCAACAUUCCGAGGGGACCGUCCCCUCGGUAAUGGCGAAUCGGACUCA [G80C C85U], the self-cleavage was found to be 0.194.

Consider GGCCGGCAUGGUCCCAGCCUCCUCGCUGGCGCCGGCUGGGCAACAUUCCGAGGGGACCGUCCCCUCGGUAAUGGCGAAUCGGACACA [G80C C85A], for which the self-cleavage amounted to 0.117.

Consider GGCCGGCAUGGUCCCAGCCUCCUCGCUGGCGCCGGCUGGGCAACAUUCCGAGGGGACCGUCCCCUCGGUAAUGGCGAAGGGAACCCA [U79G G82A], for which the self-cleavage was found to be 0.0875.

On to GGCCGGCAUGGUCCCAGCCUCCUCGCUGGCGCCGGCUGGGCAACAUUCCGAGGGGACCGUCCCCUCGGUAAUGGCGAAGGGUACCCA [U79G G82U], for which the self-cleavage stood at 0.271.

Turning to GGCCGGCAUGGUCCCAGCCUCCUCGCUGGCGCCGGCUGGGCAACAUUCCGAGGGGACCGUCCCCUCGGUAAUGGCGAAUAUGACCCA [G80A G81U], the self-cleavage stood at 0.0936.

With GGCCGGCAUGGUCCCAGCCUCCUCGCUGGCGCCGGCUGGGCAACAUUCCGAGGGGACCGUCCCCUCGGUAAUGGCGAAUACGACCCA [G80A G81C], the self-cleavage worked out at 0.106.

GGCCGGCAUGGUCCCAGCCUCCUCGCUGGCGCCGGCUGGGCAACAUUCCGAGGGGACCGUCCCCUCGGUAAUGGCGAACCGGACCCA [U79C G80C]: the self-cleavage was found to be 0.208.

Consider GGCCGGCAUGGUCCCAGCCUCCUCGCUGGCGCCGGCUGGGCAACAUUCCGAGGGGACCGUCCCCUCGGUAAUGGCGAACGGAACCCA [U79C G82A], for which the self-cleavage amounted to 0.133.

Take GGCCGGCAUGGUCCCAGCCUCCUCGCUGGCGCCGGCUGGGCAACAUUCCGAGGGGACCGUCCCCUCGGUAAUGGCGAAUCGGACCGA [G80C C86G]: the self-cleavage is 0.192.

Regarding GGCCGGCAUGGUCCCAGCCUCCUCGCUGGCGCCGGCUGGGCAACAUUCCGAGGGGACCGUCCCCUCGGUAAUGGCGAAAAGGACCCA [U79A G80A], the self-cleavage was 0.234.

As for GGCCGGCAUGGUCCCAGCCUCCUCGCUGGCGCCGGCUGGGCAACAUUCCGAGGGGACCGUCCCCUCGGUAAUGGCGAAACGGACCCA [U79A G80C], the self-cleavage came to 0.204.

In the case of GGCCGGCAUGGUCCCAGCCUCCUCGCUGGCGCCGGCUGGGCAACAUUCCGAGGGGACCGUCCCCUCGGUAAUGGCGAAGGGGAGCCA [U79G C84G], the self-cleavage was 0.185.

On to GGCCGGCAUGGUCCCAGCCUCCUCGCUGGCGCCGGCUGGGCAACAUUCCGAGGGGACCGUCCCCUCGGUAAUGGCGAAGGGGAACCA [U79G C84A], for which the self-cleavage worked out at 0.38.

As to GGCCGGCAUGGUCCCAGCCUCCUCGCUGGCGCCGGCUGGGCAACAUUCCGAGGGGACCGUCCCCUCGGUAAUGGCGAACGGGACCGA [U79C C86G], the self-cleavage came out at 0.284.

For GGCCGGCAUGGUCCCAGCCUCCUCGCUGGCGCCGGCUGGGCAACAUUCCGAGGGGACCGUCCCCUCGGUAAUGGCGAACGGGACCUA [U79C C86U], the self-cleavage came out at 0.696.

As for GGCCGGCAUGGUCCCAGCCUCCUCGCUGGCGCCGGCUGGGCAACAUUCCGAGGGGACCGUCCCCUCGGUAAUGGCGAAAGGGACCCC [U79A A87C], the self-cleavage was determined as 0.849.

Consider GGCCGGCAUGGUCCCAGCCUCCUCGCUGGCGCCGGCUGGGCAACAUUCCGAGGGGACCGUCCCCUCGGUAAUGGCGAAAGGGACCCU [U79A A87U], for which the self-cleavage was determined as 0.98.

Regarding GGCCGGCAUGGUCCCAGCCUCCUCGCUGGCGCCGGCUGGGCAACAUUCCGAGGGGACCGUCCCCUCGGUAAUGGCGAAGUGGACCCA [U79G G80U], the self-cleavage is 0.366.

On to GGCCGGCAUGGUCCCAGCCUCCUCGCUGGCGCCGGCUGGGCAACAUUCCGAGGGGACCGUCCCCUCGGUAAUGGCGAAGAGGACCCA [U79G G80A], for which the self-cleavage was found to be 0.249.

For the variant GGCCGGCAUGGUCCCAGCCUCCUCGCUGGCGCCGGCUGGGCAACAUUCCGAGGGGACCGUCCCCUCGGUAAUGGCGAAGGGGACCCG [U79G A87G], the self-cleavage amounted to 0.669.

For GGCCGGCAUGGUCCCAGCCUCCUCGCUGGCGCCGGCUGGGCAACAUUCCGAGGGGACCGUCCCCUCGGUAAUGGCGAAGGGGACCCC [U79G A87C], the self-cleavage came out at 0.656.

With GGCCGGCAUGGUCCCAGCCUCCUCGCUGGCGCCGGCUGGGCAACAUUCCGAGGGGACCGUCCCCUCGGUAAUGGCGAAGGGGACCCU [U79G A87U], the self-cleavage was found to be 0.511.

As for GGCCGGCAUGGUCCCAGCCUCCUCGCUGGCGCCGGCUGGGCAACAUUCCGAGGGGACCGUCCCCUCGGUAAUGGCGAACGGGUCCCA [U79C A83U], the self-cleavage was found to be 0.323.

Regarding GGCCGGCAUGGUCCCAGCCUCCUCGCUGGCGCCGGCUGGGCAACAUUCCGAGGGGACCGUCCCCUCGGUAAUGGCGAACGGGCCCCA [U79C A83C], the self-cleavage was found to be 0.374.

For the variant GGCCGGCAUGGUCCCAGCCUCCUCGCUGGCGCCGGCUGGGCAACAUUCCGAGGGGACCGUCCCCUCGGUAAUGGCGAAAGGGAACCA [U79A C84A], the self-cleavage came to 0.539.

With GGCCGGCAUGGUCCCAGCCUCCUCGCUGGCGCCGGCUGGGCAACAUUCCGAGGGGACCGUCCCCUCGGUAAUGGCGAAAGGGAUCCA [U79A C84U], the self-cleavage was determined as 0.314.
